Test results taken from paper PMC8126837.

Molecular target: human angiotensin-converting enzyme 2 (ACE2) (human) (UniProt Q9BYF1)
Test: FRET or BRET

Chain of human angiotensin-converting enzyme 2 (ACE2) (human) (Q9BYF1 18-740): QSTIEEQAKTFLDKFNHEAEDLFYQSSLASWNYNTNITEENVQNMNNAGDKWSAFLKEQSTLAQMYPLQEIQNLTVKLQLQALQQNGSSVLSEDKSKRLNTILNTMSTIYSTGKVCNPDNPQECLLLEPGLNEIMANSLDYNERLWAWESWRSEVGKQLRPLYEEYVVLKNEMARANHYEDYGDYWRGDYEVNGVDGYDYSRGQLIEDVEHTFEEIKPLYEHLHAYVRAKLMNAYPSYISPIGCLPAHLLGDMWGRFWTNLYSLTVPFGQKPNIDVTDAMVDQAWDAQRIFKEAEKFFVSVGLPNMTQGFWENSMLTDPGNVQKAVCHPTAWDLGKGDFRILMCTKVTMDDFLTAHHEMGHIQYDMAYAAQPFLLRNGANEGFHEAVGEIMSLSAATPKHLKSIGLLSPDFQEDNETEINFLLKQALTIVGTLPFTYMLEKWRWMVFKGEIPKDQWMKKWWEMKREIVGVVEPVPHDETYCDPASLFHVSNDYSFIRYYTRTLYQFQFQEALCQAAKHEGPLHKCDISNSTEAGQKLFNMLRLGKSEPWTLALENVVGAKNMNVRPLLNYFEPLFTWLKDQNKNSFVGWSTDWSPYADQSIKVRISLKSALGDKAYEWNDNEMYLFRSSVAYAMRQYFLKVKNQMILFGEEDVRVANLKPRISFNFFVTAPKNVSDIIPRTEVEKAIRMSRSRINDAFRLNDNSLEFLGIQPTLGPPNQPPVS

With “SARS-CoV receptor-binding domain (RBD) (from UniProt P59594) (domain or fragment)” the reduction in complex formation (FRET of SARS-CoV-2 RBD with ACE2) was 70%.
